How the values were obtained:
[1] = target: tissue factor (TF) antigen (UniProt P13726); test: SPR (ProteOn), Fab captured on anti-penta-His surface, TF injected; reference wild-type D3H44 Fab
[2] = target: tissue factor (TF) antigen (UniProt P13726); test: SPR (ProteOn), Fab captured on anti-penta-His surface, TF injected, 1:1 fit
[3] = target: tissue factor (TF) antigen (UniProt P13726); test: SPR, against wild-type D3H44 Fab; batch C (+)
[4] = target: tissue factor (TF) antigen (UniProt P13726); test: SPR (ProteOn XPR36), Fab captured on anti-penta-His, TF injected, 1:1 fit; batch C (+)
[5] = target: tissue factor (TF) antigen (UniProt P13726); test: SPR (ProteOn XPR36), Fab captured on anti-penta His surface, TF injected as analyte, 1:1 model
[6] = target: tissue factor (TF) antigen (UniProt P13726); test: SPR, same assay; reference wild-type D3H44 Fab

Chain of tissue factor (TF) antigen (P13726 33-251 limits assumed): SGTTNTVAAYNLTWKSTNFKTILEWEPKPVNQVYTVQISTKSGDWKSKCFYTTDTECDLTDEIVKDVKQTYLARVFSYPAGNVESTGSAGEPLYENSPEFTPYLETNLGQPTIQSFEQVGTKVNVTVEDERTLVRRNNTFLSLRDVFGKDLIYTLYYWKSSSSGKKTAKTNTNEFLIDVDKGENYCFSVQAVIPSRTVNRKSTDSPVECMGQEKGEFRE

Change in median values of KD of h1l1 Fab heterodimer compared to wild type (-(log(KD design)-log(KD wt))) [3] | Kd [4] [nM] | Kd [5] [nM] | change in median KD of H1L1 Fab heterodimer compared to wild type (-(log(KD design)-log(KD wt))) [6] | further results | Substance
 |  |  |  | Change in median values of KD of h1l1 Fab heterodimer compared to wild type (-(log(KD design)-log(KD wt))) [1]: 0.03; Kd [2]: 0.15 nM | D3H44 H1L1 Fab heterodimer of LCCA Sets # 9349 and 9348 (H1 L124R_A139G_V190A; L1 V133G_L135W_S176D)
 |  |  |  | Change in median values of KD of h1l1 Fab heterodimer compared to wild type (-(log(KD design)-log(KD wt))) [1]: -0.21; Kd [2]: 0.26 nM | D3H44 H1L1 Fab heterodimer of LCCA Sets # 9505 and 9503 (H1 L124R_S186R; L1 Q124E_V133G_S176D_T178D_T180E)
 |  |  |  | Change in median values of KD of h1l1 Fab heterodimer compared to wild type (-(log(KD design)-log(KD wt))) [1]: -0.1; Kd [2]: 0.2 nM | D3H44 H1L1 Fab heterodimer of LCCA Sets # 9521 and 9520 (H1 L124R_S186R; L1 V133G_S176D_T178D)
-0.01 | 0.16 |  |  |  | H1L1 Fab heterodimer of LCCA Set # 9779 and 9780 (D3H44 Fab; H1 Q179K, L1 Q124E_S131T_T178Y_T180E)
0.28 | 0.08 |  |  |  | H1L1 Fab heterodimer of LCCA Set # 9781 and 9782 (D3H44 Fab; H1 Q179K, L1 Q124E_S176L_T180E)
0.14 | 0.11 |  |  |  | H1L1 Fab heterodimer of LCCA Set # 9803 and 9804 (D3H44 Fab; H1 Q179R, L1 Q124E_S131T_T178F_T180E)
0.07 | 0.13 |  |  |  | H1L1 Fab heterodimer of LCCA Set # 9805 and 9806 (D3H44 Fab; H1 Q179R, L1 Q124E_S131T_T178Y_T180E)
-0.03 | 0.17 |  |  |  | H1L1 Fab heterodimer of LCCA Set # 9843 and 9844 (D3H44 Fab; H1 S186K, L1 Q124E_S131T_T178F_T180E)
0.09 | 0.13 |  |  |  | H1L1 Fab heterodimer of LCCA Set # 9845 and 9846 (D3H44 Fab; H1 S186K, L1 Q124E_S131T_T178Y_T180E)
0.14 | 0.11 |  |  |  | H1L1 Fab heterodimer of LCCA Set # 9906 (D3H44 Fab; H1 S188G, L1 S176L)
0.01 | 0.15 |  |  |  | H1L1 Fab heterodimer of LCCA Set # 9914 (D3H44 Fab; H1 S188L_V190F, L1 WT)
 |  | 0.19 | -0.08 |  | H1L1 Fab heterodimer of LCCA set 9214 (D3H44 Fab, H1 L124E_L143D_K145T, L1 Q124K_V133G_S176R_T178K)
 |  | 0.16 | -0.02 |  | H1L1 Fab heterodimer of LCCA set 9225 (D3H44 Fab, H1 L124E_L143D_K145T, L1 Q124K_V133G_S176R_T178R)
 |  | 0.24 | -0.19 |  | H1L1 Fab heterodimer of LCCA set 9260 (D3H44 Fab, H1 L124E_L143E_K145M, L1 Q124K_V133G_S176R_T178K)
 |  | 0.31 | -0.29 |  | H1L1 Fab heterodimer of LCCA set 9269 (D3H44 Fab, H1 L124E_L143E_K145M, L1 Q124K_V133G_S176R_T178R)
 |  | 0.2 | -0.1 |  | H1L1 Fab heterodimer of LCCA set 9351 (D3H44 Fab, H1 L124R_D146N_Q179K, L1 Q124E_V133G_S176D_T178E_T180E)
 |  | 0.17 | -0.04 |  | H1L1 Fab heterodimer of LCCA set 9354 (D3H44 Fab, H1 L124R_D146N_Q179K, L1 V133G_Q160E_S176D_T180E)
 |  | 0.18 | -0.07 |  | H1L1 Fab heterodimer of LCCA set 9358 (D3H44 Fab, H1 L124R_D146N_Q179K, L1 V133G_S176D_T178E)
 |  | 0.16 | -0.01 |  | H1L1 Fab heterodimer of LCCA set 9359 (D3H44 Fab, H1 L124R_D146N_Q179K, L1 V133G_S176D_T178E_T180E)
 |  | 0.26 | -0.21 |  | H1L1 Fab heterodimer of LCCA set 9516 (D3H44 Fab, H1 L124R_S186R, L1 Q124E_V133G_S176D_T178D_T180E)

— patent US11306156
